In the nanobody polyreactivity screen of Harvey et al. (2022):

Assay: yeast display, Sf9 membrane polyspecificity reagent, FACS + sequencing; frameworks hold sequencing errors
Procedure, shortened: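 Galactose-induced (36–48 hours) yeast carrying a synthetic nanobody display library were exposed to 10% biotinylated, detergent-solubilized Sf9 membrane reagent at 4 °C for 1 hour. FACS followed streptavidin microbead enrichment, using low and high (top ~1%) gates for expression (anti-HA) and reagent binding (streptavidin). Colony PCR, MiSeq 2 × 250 sequencing and CDR-length filtering followed. Labels for polyreactivity reflect the gate of origin.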

Row | Sequence | polyreactivity (PSR sort gate)
1 | QVQLVESWGGVVQAGVSLRLSCAASGINFYSYAMGWYRQAPGKERELVAAISNNGGSTYADSVKGRFTISRDNAKNTVYLQMNSLKPEDTAVYYCAADPTGGVGFDGYYWGQGTQVSVSS | low polyreactivity
2 | QVQLVESAGGLVQAGGSLRLSCAASGFTFGENALGWYRQAPGKERELVAAIRYSGGSTYYADSVKGRFTLSRDNAKNTVYLQLNSLKAEDTAVYYCNADTYALGAAVIPGDEYWGQGTQVTVSS | low polyreactivity
3 | QVQLVESGGGLVQAGGSLRLSCAASGSTFDYYVMGWYRQAPGKERELVAAISHNAGSTYYADSVKGRFTISRDNAKNTVYLQMNSLKPEDTAVYYCAAPDYRNGVRYPLDYWGQGTQVTVSS | low polyreactivity
4 | QVQLVESGGGLVQAGGSLRLSCAASGSTFVGYAMGWYRQAPGKERELVADIDSIGGSTYYADSVKGRFTISRDYAKNTVYLQMNSLKPEDTAVYYCAARRFDTALVLYDYWGQGTQVTVSS | low polyreactivity
5 | QVQLVESGGGLVQAGGSLRLSCAASGRTFGVYAMGWYRQAPGKERELVAAIRWSGGGTYYADSVKGRFTISPDNAKNTVYLQMNSLKPEDTAVYYCAATFQNSPYTRYTDMYYWGQGTQVTVSS | low polyreactivity
6 | QVQLVESGGGLVQAGGSLRLSCAASGRIFAGYAMGWYRQAPGKERELVAGISNRGGSTYYADSVKGRFTISRDNAKKTVYLQMNRLKPEDTAVYYCAVRRRSLGGYWGQGTQVTVSS | high polyreactivity
7 | QVQLQESGGGLVQVGGSQRLSCAASGNIFYNYAMGWYRHAQGKEREFDATINHGTSINYADSVKGRFTISRDNAKNSVYLQMNSLKPEDTAVYYCAADLSWTDNLFYWGQGTQVTVSS | low polyreactivity
8 | QVQLVESGGGLVQAGGSLRLSCAASGITFRYFAMGWYRQAPGKERELVAAITRSGSTTYADSVKGRFTISRDNAKNTVYLQMNSLKPEDTAVYYCAVDYYYLTGGVDYWGQGTQVTVSS | low polyreactivity
9 | QVQLVESGGGLVQAGGSLRLSCAASGRIFYVYAMGWYRQAPGKERELVATITYRGDTDYADSVKGRFTSSRDNAKNTVYLQMNSRKPEDTAVYYCAKDFEAGDDYFAYDYWGQGTQVTVSS | low polyreactivity
10 | QVQLVESGGGLVQAGGSLRLSCAASGRTLKRNAMGWYRQAPGKERELVAAISFRVTNTYYADSVKGRFTISRDNAKNTVYLQMNSLKPEDTAVYYCAVPDSRFYSPRRVSPHDYWGQGTQVTVSS | high polyreactivity
11 | QVQLVESGGGLVQAGGSLRLSCAASGRIFVKYAMGWYRQAPGKERELVAGISRSVGSTYYADSVKGRFTISRDNAKNTVYLQMNSLKPEDTAVYYCATRQKRVGYYYWGQGTQVTVSS | high polyreactivity
12 | QVQLVESGGGLVQAGGSLRLSCAASGRIFLTNAMGWYRQAHGKERELVADISRGGSTYADSVKGRFTISRDNAKNTVYLQMNSLKPEDTAVYYCAADEYSPGDSRTRYDYWGQGTQVTVSS | low polyreactivity
13 | QVQLVESCGGLVQAGGSLRLSCAASGSTFTPNAMGWNRQAPGKERELVAAIRGLNGRTYYADSVKGRFTISRDNAKNTVYLQMNSLKPEDTAVYYCAAGGYSYYFAWHDYWGQGTQVTVSS | low polyreactivity
14 | QVQLGESGGGLVQAGGSLRLSCAASGFIFYVYAMGWYRQAPGKERELVAAISWSGDRTYYADSVKGRFTISRDNAKNTVYLQINSLKPEDTAVYYCAVERSVYSYYYWGQGTQVTVSS | high polyreactivity
15 | QVQLVESGGGLVQAGGSLRLSCAASGSNFRLYAMGWYRHAPGKERELVATISGSAGRTYYADSVKGRFTISRDYAKNTVYLQMNSLKPEDTAVYYCAARWYQEYFWGQGTQVTVSS | high polyreactivity
16 | QVQLEESGGGLVQAGGSLRLSCAASRSTLDGYAMGWYRQAPGKERELVDAITFSGGITYYADSVKVRFTISRDNAKNTVYLQMNILKPEDTAVYYCAADISTWTTWSGTEYDYLGQGTQVTVSS | low polyreactivity
17 | QVQLVESGGGLVQAGGSLRLSCAASGSTLDSNAMGWYRQAPGKERELVAGIDWSGGSTYADSVKGRFTISRDNAKNTVYLQMNSLKPEDTAVYYCNRKLTRFTSFPLDYWGQGTQVTVSS | low polyreactivity
18 | QVQLVESGGGLVQAGGSLRLSCAAAGRIFVGYAMGWYRQAPGKERELVAGISRSGYSTYYADSVKGRFTISRDNAKNTVYLQMNSLKPEDTAVYYCAASWYKNPTRYYYWGQGTQVTVSS | high polyreactivity
19 | QVQLVESGGGLVQAGGSLRLSCAASGLIFPRYAMGWYRQAPGKERELVAAITRGGSTYYADSVKGRFTISRDNAKNTVYLQMNSLNPEDTAVYYCTAELPVHWSWYDYWGQGPQVTVSS | low polyreactivity
20 | QVQLVESGGGLVQAGGSLRLSCAASGNIFYINTMGWYRQAPGKERELVAAIDASDGSTYYADSVKGRFTISRDNAKNSVYLQMYSLKPEDTAVYYCASRRGYDSVYYFYTLWYYYWGQGTQVTVSS | low polyreactivity
21 | QVQLVESGGGLGQAGGSLRLSCAASGRTFYDNAMGWYRPAPGKERELVAAISSSGSSTYYADSVKGRFTISLDNAKNTVYLQKNSLKPEDTAVYYCSASYTDYYFGFGTDVRYGYWGQGTQVTVSS | high polyreactivity
22 | QVQLVESGGGLVQAGGSRRLSCAASGSIFYLYAMGWSRQAPGKERELVATITWSGGSTYYADSVKGRFTISRDTAKNTVYLQMNSLKPEDTAVYYCAATALEWYPAVYNQYYYWGQGTQVTVSS | low polyreactivity

Row | Sequence | polyreactivity (PSR sort gate)
23 | QVQLVETGGGLVQAGGSLRLSCAASGRTFHYNVMGWYRQAPGKERELVAAITNTGGSTYYADSVKGRFTISRDNAKNTVYLQMNSLKPEDTAVYYCAAVETLPFDWYYWRYDYWGQGTQVTVSS | low polyreactivity
24 | QVQLVESGGGLVQAGGSIRLSCAASGRIFKGYAMGSYRQAPGKERELVAAISSRGGITYYADSVKGRFTISRDNAKNSVYLEMNSLNPEDTAVYYCAAVYKWSRYGGYKYWGQGTQVTVSS | low polyreactivity
25 | QVQLVESGGGLVQAGGSLRLSCAGSGRIFVSYAMGWYRQAPGKERELVAAITRSGGSTYYADSVKGRFTISRDNAKNTVYLQMNSLKPEDTAVYYCNAYIPRTRYRSGYWGQGTQVTVSS | high polyreactivity
26 | QVQLVESGGGLVQAGGSLRLSCAASGFTFPYYAMAWYRQAPGKEREVVAAISFSGGRTYYADSVMGRFTISRDNAKYTVYLQMNSLKPEDTAVYYCASYDYRNTGGGGYYYWGQGTQVTVSS | high polyreactivity
27 | QVQLVESGGGLVQAGGSLRLSCAASGRTFVGYAMGWYRQAPGKERELVAAITSGGGTYYADSVKGRFTISRDNAKNTVYLQMNSLKPEDTAVYYCNRASRRGYYYPYNYWGQGTQVTVSS | high polyreactivity
28 | QVQLVESGGGLVQAGGSLRLSCAASGSTFYPNAMGWYRQAPGKERELVAAISRGTRTKYADSVKGRFTISRDNAKNTVYLQMNSLKPEDTAVYYCAADTGTGLDWGQGTQVTVSS | high polyreactivity
29 | QVQLVESGGGLFQAGVSLTLSFAASGSIFDINAMGWYRQEPWKETDLVAAIRSGDRTHYADSVKGRFTISRDNAMNTVYLQMNSLIPEDTAVYYCAADRFIYLNRELDYWGQGTQVTVSS | low polyreactivity
30 | QVQLVESGGGLVQAGGSLPLSCAASGRIYDSYAKGWYIQAPGKERELVAAISFGGDTYYADSVKGRFTISRDNAKNTVYLQMNSLKPEDTAVYYCAKDNPAALFDSWGQGTQVTVSS | low polyreactivity
31 | QVQLVESGGGLVQAGGSLRLSCAASGSNFLAYAMGWYRQAPGKERELVADISWGGGSTSYADSVKGRFTISRDNAKNTVYLQMNSLKPEDTAVYYCNKGSFSKRRDYYWGQGTQVTVSS | high polyreactivity
32 | QVQLVESGGGLVQAGGSLLLSCAASGRTFATNAMGWNRQAPGKERELVADISGGGSTYYADSVKGRFTISRDNAKNTVYLQMNSMKPEDTAVYYCAARDYHWFQWYDYWGQGTQVTVSS | low polyreactivity
33 | QVQLVDSGGALVQAGGSLRLSCAASGPTFYTKTMGSYRQAPGKERELVAVISSGGGSTYYSDSVKGRFTISRDNAKNTVYLQMNSLKPEDTAVYYCAKRRGGQGNYWGQGPQVTVSS | high polyreactivity
34 | QVQLVESGGGVVQAGGSLRLSCAASGTFYLYAMGWYRQAPGKERELVAAISGSGSTNYADSVKGRFTISRDNAKNTVYLQMNSLKPEDTAVYYCAAYQRYDSVTGARYEYDYWGQGTQVTVSS | low polyreactivity
35 | QVKLEESGGGLVQAGGSLRLSCAASGSTFRAYTMGWYRQAPAKEREFVAAISRSGGSTFYADSVKGRFTISRDYAKNTVYLQMNSLKPEDNAVYYCAASYRYSASYYWGEGTQVTVSS | high polyreactivity
36 | QVQLLESGGGLVQPGGSLRLSCAASGSIFGLNAMGLYRQEPGKETELVAAISGGSTNYADSVKGRFTISRDNAKNTVYFQMISLKPEDTAVYYCAAPRTKYLSNYGFWGEGTQVTVSS | high polyreactivity
37 | QVQLVESGGGLVQAGGSLRLSCAASGSTFNSYAMGWYRQAPGKERELVAAISWSGGSTYYADSVKGRFTISRDNAKNTVYLQMNSLKPEDPAVYYCNADYWWEYAYGVDYWGQGTQVTVSS | low polyreactivity
38 | QVHLVESAGCLVQAGGSLRLSCAASGSIIYLYAMGWYRQAPGKERELVAAISSGGSTNYADSVKGRFTISRDNAKNSVYLQMNSLKPEDTAVYYCAATLPGWYNEYDSWGQGTQVTVSS | low polyreactivity
39 | QVQLVESGGGLVQAGGSLRLSCAASGITFVTYAMGWSRQAPGKERELVADISWRGTSTNYADSVKGRFTISRDNAKNTVYFQMISLKPEDTAVYYCAAKQTYTRLHYLGPSVWDNYDYWGQGTQVTVSS | high polyreactivity
40 | QVQLVESGGGLVQAGGILRLSCAASGRTFLYYAMGWYRQAPGKERELVAGITSGGSTNYADSVKGRFTISRDTAKNTDYLQMNSLKPEDTAVYYCAVDQGYYRTADVNYDYWGQGTQVTVSS | low polyreactivity
41 | QVQLVESGGGLDQAGGCLRLSCAASGSIFRTYAMGWYRQAPGKERELVADITRRGGSTYYADSVKGRFTISRDNAKYTVNLQLNSLKPEETAVYYCAAYGYTSAGDSARLDYWGQGSQVTVSS | high polyreactivity
42 | QVQLVESVGGLVQAGGSLRLSCDASGRTFRVYAMGWYRQAPGKERELVAAITSGDSTYYADSVKGRFTISRDNAKNTFYLQMNSLKPEDTAVYYCAVNTSRYWSGYWGQGTQVTVSS | high polyreactivity
43 | KVQLQESGGGLVQAGGSLRLSCAASCTISQEDWMGWYRQAPGKEREFVAAIGLGSNTNYADSLKGRFPISRDNAKNTVYLQMNSLKPEDTAVYYCAVSVWQYSDHVYRGQGTQVTVSS | low polyreactivity
